According to patent US20200308299A1, “ANTI-GPC-1 ANTIBODY” (National University Corporation Kochi University, priority 2017, published 2020):

What was measured:
[1] = Safety test on anti-GPC1 antibody 01a033 using mice; type: in vivo, mouse; conditions: 1 mg/body ip, C57BL/6J mice, day 7
Method: The following items were evaluated on day 7.
Blood collection endpoints: WBC, RBC, Hb, Plt, T-Bil, ALT, ALP, Amy, BUN, Cr, Ca, P, TP, Alb, Na, K, Glob, and Glu, automatic blood cell counter: VetScan HMII, animal biochemical blood analyzer: VetScan VS2.

[2] = tested on: TE8, HeLa, ME180, BxPC3, and T3M4 cell strains; experiment: Internalization assay on GPC1 ADC (01a033), various GPC1 positive cell strains; type: cell-based; conditions: esophageal, pancreatic and cervical cancer derived cell strains, 37° C.
Method: Detection was performed on cells treated with GPC1 ADC (01a033) MMAF with anti-GPC1 mAb (biotin-labeled 02b006) and PE-labeled streptavidin.
TE8, HeLa, ME180, BxPC3, and T3M4 cell strains were detached and collected from a 10 cm plate using 0.02% EDTA. Cells were suspended in RPMI1640+10% FBS+100 U/ml penicillin+100 μg/ml streptomycin, and two 1.5 ml tubes were created at 1.0×10^6 cells/0.9 ml. To lower the internalization activity, the tubes were left standing on ice for 1 hour. 1 mg/ml of GPC1 ADC (01a033) MMAF was diluted to 24 μg/mL (160 nM) with ice-cooled RPMI1640+10% FBS+100 U/ml penicillin+100 μg/ml streptomycin. 100 μl of the ADC was added and suspended in the cell suspension and incubated on ice for 30 minutes to stain the antigens on the cell surface. After 30 minutes, the cell suspension was dispensed into 7 tubes each at 100 μl each. The cell suspension was separated into 4° C. incubation group and 37° C. incubation group in 14 tubes. The incubation times were 0.0 h, 1 h, 2 h, 3 h, 4 h, 6 h, 12 h, and 24 h. After reaching the incubation time, the cells were centrifuged at 1500 rpm at 4° C. for 5 minutes to remove the supernatant. The cells were washed with 100 μl of ice cooled PBS+0.2% BSA and subjected to centrifugation to wash the cells. Washing operation was performed three times in total. […]

[3] = Single dose safety test on GPC1 ADC in C57BL/6J mice
Method: A single dose (1 ml) of control PBS, control ADC (50 mg/kg), anti-GPC1 ADC (3 mg/kg), anti-GPC1 ADC (15 mg/kg), and anti-GPC1 ADC (50 mg/kg) was intraperitoneally administered on day 1 to a group of 4 male and 4 female C57BL/6J mice (8W). The mice were dissected after 7 days from administration.
*Blood collection (Blood cell count, biochemical test)

pancreatic cancer PDX = experiment: In vivo efficacy test on GPC1 ADC using pancreatic cancer PDX in NOG mice; parameters: species or system mouse; conditions: 1, 3, 10 mg/kg iv day 0, 4, 8, 12
Excerpt: Pancreatic cancer PDX (Patient-derived tumor xenograft) refers to residual tissue from pathological analysis of cancer tissue upon pancreatic cancer surgery from a pancreatic cancer patient. This Example used a pancreatic cancer model created by subcutaneously grafting in superimmunodeficient mice such as NOG mice. While human tumor hardly survives in SCID mice after grafting, NOG mice have more severe immunodeficiency than SCID mouse, so that human tumor is more likely to survive. For this reason, a PDX model has an environment that is closer to human tumor than a mouse model to which a cell strain is grafted. Thus, information obtained with a PDX model is useful in evaluating drug efficacy.
FIG. 24 schematically depicts the test in this Example. Specifically, pancreatic cancer PDX was subcutaneously grafted into 6 week old female NOG mice. […] The tumor volume and body weight were measured on day 0, day 4, day 8, day 12, day 16, day 20, day 24, and day 28.

HeLa cells = experiment: In vitro ADC assay, HeLa cells; type: cell-based; conditions: 144 hours
Method: Preparation of a conjugate of mouse anti-Glypican-1 mAb (01a033), mouse IgG2a (biolegend #400224) as a control, and mc-vc-PAB-MMAF was commissioned to MORADEC. An anticancer agent was conjugated to a cysteine residue via a cleavable linker. The DAR (drug-antibody ratio) was as follows. GPC1-CL-MMAF DAR=3.8, mouse IgG2a-CL-MMAF DAR=4.1.
(1) The cells were seeded on Thermo Fisher Scientific's 96-well white plate (model no.: 136101) (90 μl cell suspension). RPMI1640+10% FBS+100 U/ml penicillin+100 μg/ml streptomycin was used as the medium. The cells were seeded in 60 wells, and 100 μL of medium was added to 36 wells, and cultured in a 5% CO2 incubator at 37° C. (2) The next day, 10 μL of ADC was added to the cells (total amount: 100 μL). (3) After 144 hours of culture, a CellTiter-Glo™ Luminescence Cell Viability Assay reagent (Promega) was added and mixed at 100 μL/well. (4) Measurements were taken with a plate reader. (5) Analysis was conducted with GraphPad Prism 6.
The IC50 values were calculated from the following equation (Hossain M M, Hosono-Fukao T, Tang R, Sugaya N, van Kuppevelt T H, Jenniskens G J, Kimata K, Rosen S D, Uchimura K (2010) Direct detection of HSulf-1 and HSulf-2 activities on extracellular heparan sulphate and their inhibition by PI-88. Glycobiology 20(2): 175-186.)
IC50=10^(Log [A][B]×(50−C)/(D−C)+Log [B]) […]

[4] = single ip dose, high dose administration group, not GPC1-ADC specific

Row | Molecule | toxicity (blood cell count, biochemical blood analysis) [1] | internalization activity [2] | toxicity from the results of the hematological test ([3]; single ip dose) | anemia (hemoglobin) ([3]; single ip dose 50 mg/kg) | amylase ([3]; single ip dose 3, 15, 50 mg/kg) | platelet count ([3]; single ip dose 3, 15, 50 mg/kg) | change in the body weight ([3]; single ip dose, groups other than 50 mg/kg (3, 15 mg/kg), 7 days) | liver function (ALT) [3, 4] | white blood cells [3, 4] | antitumor effect (tumor volume, tumor weight day 28) (pancreatic cancer PDX) | effect of suppressing cell growth (HeLa cells)
1 | clone 01a033 (antibody) heavy: QVQLKQSGPELVKPGASVKISCKASGYSFTGYYMHWVKQSPEKSLEWIGEINPSTGDTTYNQKFKAKATLTVDKSSSTAYMQLKSLTSEDSAVYYCAREKRDDGVFAYWGQGTLVTVSSAKTTAPSVYPLAPVCGDTTGSSVTLGCLVKGYFPEPVTLTWNSGSLSSGVHTFPAVLQSDLYTLSSSVTVTSSTWPSQSITCNVAHPASSTKVDKKIEPRGPTIKPCPPCKCPAPNLLGGPSVFIFPPKIKDVLMISLSPIVTCVVVDVSEDDPDVQISWFVNNVEVHTAQTQTHREDYNSTLRVVSALPIQHQDWMSGKEFKCKVNNKDLPAPIERTISKPKGSVRAPQVYVLPPPEEEMTKKQVTLTCMVTDFMPEDIYVEWTNNGKTELNYKNTEPVLDSDGSYFMYSKLRVEKKNWVERNSYSCSVVHEGLHNHHTTKSFSRTPGK light: DIVMSQSPKSMSMSVGERVALSCKASENVGTYVSWYQQKPEQSPKLLIYGASNRYTGVPDRFTGSGSATDFTLTISSVQAEDLADYYCGQSYSYPLTFGAGTKLELKRADAAPTVSIFPPSSEQLTSGGASVVCFLNNFYPKDINVKWKIDGSERQNGVLNSWTDQDSKDSTYSMSSTLTLTKDEYERHNSYTCEATHKTSTSPIVKSFNRNEC | Toxicity was not found | high internalization activity |  |  |  |  |  |  |  |  | 
2 | GPC1 ADC (conjugate) heavy: QVQLKQSGPELVKPGASVKISCKASGYSFTGYYMHWVKQSPEKSLEWIGEINPSTGDTTYNQKFKAKATLTVDKSSSTAYMQLKSLTSEDSAVYYCAREKRDDGVFAYWGQGTLVTVSSAKTTAPSVYPLAPVCGDTTGSSVTLGCLVKGYFPEPVTLTWNSGSLSSGVHTFPAVLQSDLYTLSSSVTVTSSTWPSQSITCNVAHPASSTKVDKKIEPRGPTIKPCPPCKCPAPNLLGGPSVFIFPPKIKDVLMISLSPIVTCVVVDVSEDDPDVQISWFVNNVEVHTAQTQTHREDYNSTLRVVSALPIQHQDWMSGKEFKCKVNNKDLPAPIERTISKPKGSVRAPQVYVLPPPEEEMTKKQVTLTCMVTDFMPEDIYVEWTNNGKTELNYKNTEPVLDSDGSYFMYSKLRVEKKNWVERNSYSCSVVHEGLHNHHTTKSFSRTPGK light: DIVMSQSPKSMSMSVGERVALSCKASENVGTYVSWYQQKPEQSPKLLIYGASNRYTGVPDRFTGSGSATDFTLTISSVQAEDLADYYCGQSYSYPLTFGAGTKLELKRADAAPTVSIFPPSSEQLTSGGASVVCFLNNFYPKDINVKWKIDGSERQNGVLNSWTDQDSKDSTYSMSSTLTLTKDEYERHNSYTCEATHKTSTSPIVKSFNRNEC |  |  | Significant toxicity due to ADC administration was not observed | Mild anemia | Specific abnormality was not observed | Abnormal platelet count specific to each group was not observed | Significant change in the body weight was not observed | An abnormality in the liver function was found | increase in the while blood cells was observed | exhibited an antitumor effect | exhibits an effect of suppressing cell growth
